In PMC3388945 one finds percent of input precipitated data, which are given here for two substances.

The experiment concerns the target GST-TFIIB fusion protein (UniProt Q00403). In words: pull-down.
UniProt Q00403, sequence (Q00403 whole entry, the tested form may be a part): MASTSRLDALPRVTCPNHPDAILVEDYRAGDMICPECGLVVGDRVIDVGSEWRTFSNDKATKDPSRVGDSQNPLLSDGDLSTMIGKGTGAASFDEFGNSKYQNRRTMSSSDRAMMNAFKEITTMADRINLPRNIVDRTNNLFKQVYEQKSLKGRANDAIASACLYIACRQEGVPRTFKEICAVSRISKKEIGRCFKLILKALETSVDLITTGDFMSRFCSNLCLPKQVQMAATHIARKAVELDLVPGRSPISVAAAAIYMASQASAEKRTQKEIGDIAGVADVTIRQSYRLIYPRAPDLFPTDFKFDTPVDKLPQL

On to “35S-IR2P(78-397)-NH (domain or fragment)”, for which the percent of input precipitated is 12 % of input.
On to “35S-IR2P(78-438)-NH (domain or fragment)”, for which the percent of input precipitated was 13 % of input.
